Data: the supplement of paper PMC9112550, “Optimization of the antimicrobial peptide Bac7 by deep mutational scanning” (BMC Biology, 2022)

Tested on: Escherichia coli TOP10
Assay: shrunken log2 fold change of peptide-encoding DNA abundance (4.5 h post-induction vs induction); higher = less antimicrobial activity (less host growth inhibition)
Details: time post-induction: 4.5 h; library: site-saturation at positions 5, 18, 19, 20
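Also: peptides expressed intracellularly from a pBAD plasmid library in pooled LB shake-flask culture, induced with 0.3% L-arabinose, DNA abundance read by NGS, three biological replicates, DESeq2 with apeglm shrinkage.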

Sequence	shrunken log2 fold change
RRIRARPPRLPRPRPRPGLYPRP	-0.077
RRIRARPPRLPRPRPRPGNDPRP	-0.00116
RRIRARPPRLPRPRPRPGNFPRP	-0.226
RRIRARPPRLPRPRPRPGNRPRP	0.0467
RRIRARPPRLPRPRPRPGNWPRP	0.346
RRIRARPPRLPRPRPRPGPQPRP	0.367
RRIRARPPRLPRPRPRPGQTPRP	0.178
RRIRARPPRLPRPRPRPGRFPRP	1.11
RRIRARPPRLPRPRPRPGSFPRP	0.495
RRIRARPPRLPRPRPRPGTSPRP	0.24
RRIRARPPRLPRPRPRPGVVPRP	0.645
RRIRARPPRLPRPRPRPGVWPRP	1.55
RRIRARPPRLPRPRPRPGWMPRP	-0.168
RRIRARPPRLPRPRPRPGWSPRP	0.57
RRIRARPPRLPRPRPRPGWWPRP	0.235
RRIRARPPRLPRPRPRPHACPRP	0.066
RRIRARPPRLPRPRPRPHATPRP	1.01
RRIRARPPRLPRPRPRPHCKPRP	0.0852
RRIRARPPRLPRPRPRPHCNPRP	0.717
RRIRARPPRLPRPRPRPHCTPRP	1.18

Sequence	shrunken log2 fold change
RRIRARPPRLPRPRPRPHDKPRP	-0.0542
RRIRARPPRLPRPRPRPHGSPRP	-0.071
RRIRARPPRLPRPRPRPHICPRP	-0.104
RRIRARPPRLPRPRPRPHIQPRP	-0.164
RRIRARPPRLPRPRPRPHISPRP	-0.278
RRIRARPPRLPRPRPRPHITPRP	-0.294
RRIRARPPRLPRPRPRPHKDPRP	0.0954
RRIRARPPRLPRPRPRPHLCPRP	0.202
RRIRARPPRLPRPRPRPHLWPRP	0.645
RRIRARPPRLPRPRPRPHMDPRP	0.281
RRIRARPPRLPRPRPRPHNRPRP	-0.00621
RRIRARPPRLPRPRPRPHQPPRP	-0.115
RRIRARPPRLPRPRPRPHQTPRP	-0.103
RRIRARPPRLPRPRPRPHRAPRP	0.216
RRIRARPPRLPRPRPRPHRMPRP	-0.0562
RRIRARPPRLPRPRPRPHRRPRP	0.212
RRIRARPPRLPRPRPRPHVWPRP	0.29
RRIRARPPRLPRPRPRPHVYPRP	-0.0492
RRIRARPPRLPRPRPRPHWYPRP	0.157
RRIRARPPRLPRPRPRPHYDPRP	-0.0354

Sequence	shrunken log2 fold change
RRIRARPPRLPRPRPRPIAKPRP	0.217
RRIRARPPRLPRPRPRPICHPRP	0.0398
RRIRARPPRLPRPRPRPIDTPRP	0.0213
RRIRARPPRLPRPRPRPIEAPRP	0.213
RRIRARPPRLPRPRPRPIEEPRP	-0.0473
RRIRARPPRLPRPRPRPIGNPRP	0.00902
RRIRARPPRLPRPRPRPIHGPRP	-0.208
RRIRARPPRLPRPRPRPIHLPRP	-0.633
RRIRARPPRLPRPRPRPIKWPRP	0.235
RRIRARPPRLPRPRPRPILTPRP	0.0217
RRIRARPPRLPRPRPRPIMLPRP	-0.43
RRIRARPPRLPRPRPRPINIPRP	-0.334
RRIRARPPRLPRPRPRPINVPRP	-0.0118
RRIRARPPRLPRPRPRPIPPPRP	0.217
RRIRARPPRLPRPRPRPIQHPRP	-0.132
RRIRARPPRLPRPRPRPISFPRP	0.323
RRIRARPPRLPRPRPRPISSPRP	-0.102
RRIRARPPRLPRPRPRPISVPRP	-0.173
RRIRARPPRLPRPRPRPITMPRP	-0.231
RRIRARPPRLPRPRPRPIVFPRP	-0.0956
